The source of these data is US20130150287A1.

The experiment addresses integrin overexpressed on cancer cells. The experiment in a line: cell-based or functional assay.

CDCRGDCFC [RGD peptide (…)]: the reduction of cellular uptake of the recombinant protein particle by B16F10 cells after preincubation with 100-fold molar excess of RGD peptide was 40%, the reduction of cellular uptake of the recombinant protein particle by B16F10 cells after preincubation with 200-fold molar excess of RGD peptide was determined as 95% and the reduction of cellular uptake of the recombinant protein particle by B16F10 cells after preincubation with 400-fold molar excess of RGD peptide is 95%.
